The values that follow come from patent US20220267427A1 (SYSMEX, published 2022).

Where no end group is shown, it is not given here. The star is where a group is joined. Biotin = O=C1N[C@H]2[C@H](CS[C@H]2CCCCC(=O)*)N1

One assay concerns the target T1, Peptide 2 (human).
T1 construct: Synthetic peptide; lacks the C-terminal aspartic acid of Peptide 1
T1 peptide: {BSA}-RRLLEDGEDFNLGDAL
Description: solid phase ELISA, BSA-conjugated peptide on plate. As to the method:
(1) BSA was added to the N-terminus of Peptide 1 and Peptide 2. (2) Each peptide was added to an ELISA plate at 5 μg/mL and 100 μL/well, and the plate was allowed to stand at 4° C. overnight to immobilize the peptide. Thereafter, the plate was washed three times with PBST, and Buffer I′ (10 mM NaH₂PO₄.2H₂O, 149.7 mM NaCl, 2.5 mM EDTA 2Na, 0.10% BSA, pH 7.0) was added thereto at 200 μL/well to prepare a plate stored at 4° C. overnight. […] (5) The plate was washed three times with PBST, and 15000-fold diluted Peroxidase-conjugated Affinipure F(ab)′2 Fragment Goat Anti-Mouse IgG (H+L) (Jackson) was added thereto at 100 μL/well, followed by shaking at room temperature for 1 hour. (6) The plate was washed three times with PBST, TMB Mix (1-step Ultra TMB-ELISA (Thermo Scientific):3% H₂O₂: Phosphate-Citrate buffer (Sigma)=15:0.15:14.85) was added thereto at 100 μL/well, and the mixture was reacted at room temperature for 10 minutes. Thereafter, 1 M H₂SO₄ was added thereto at 100 μL/well to stop the reaction. (7) Absorbance of the reaction solution at 450 nm was measured with a plate reader.

Assay [1] concerns the target T2, fCK18 in apoptosis-induced HepG2 cell culture supernatant (human, UniProt P05783 239-397).
T2 construct: Natural CK18 fragment from the culture supernatant of apoptosis-induced HepG2 cells (band around 18 KDa); also called fCK18 in apoptosis-inducing cells
T2 sequence: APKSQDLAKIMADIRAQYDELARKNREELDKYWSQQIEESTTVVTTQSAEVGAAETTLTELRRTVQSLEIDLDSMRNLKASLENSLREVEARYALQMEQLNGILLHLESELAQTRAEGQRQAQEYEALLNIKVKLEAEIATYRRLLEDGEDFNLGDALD
Description: plate ELISA with K18-624 magnetic microbeads, K18-328Fab-ALP detector; fCK18 2.23 ng/mL. As to the method:
(§1) Measurement samples of 3-fold dilution series (3-fold to 6561-fold dilution) were prepared from the apoptosis-induced HepG2 cell culture supernatant with a diluent (TBS, pH 7.5, 2% BSA), and fCK18 was measured. […] Based on the prepared calibration curve, fCK18 in the measurement sample was measured.
(§2) This solution was added to an ELISA plate at 25 μL/well, then each measurement sample was added at 25 μL/well, and the plate was incubated (1500 rpm, RT, 20 min). […] (3) After washing the plate, the HISCL (registered trademark) R4 reagent was added thereto at 50 μL/well, and then the mixture was stirred (1500 rpm, RT, 1 min). Thereafter, the HISCL (registered trademark) R5 reagent was added at 100 μL/well, and then the mixture was stirred (1000 rpm, RT, 10 sec). (4) Luminescence intensity was measured with a plate reader.
On the technique in general: An ELISA detects its analyte on a solid surface through an enzyme-linked reagent.

For assay [2], the target named is T2, fCK18 in apoptosis-induced HepG2 cell …. The experiment in a line: HISCL sandwich immunoassay; K18-624 magnetic microbeads capture, K18-328Fab-ALP detector; fCK18 60.73 ng/mL.
For assay [3] the target is unchanged. Description: plate ELISA with K18-624 magnetic microbeads, K18-328Fab-ALP detector; fCK18 0.74 ng/mL. As to the method: as §1, §2
A further assay addresses T3, Peptide 21 (human).
T3 peptide: Biotin-SELAQTRAEGQRQAQEYE
Description: solid phase ELISA; biotinylated peptide on plate, antibody 2 ug/ml.

For the next assay, the target named is T4, Peptide 24 (human).
T4 peptide: Biotin-ALLNIKVKLEAEIATYRR
The assay is described as above.

Another assay deals with T5, Peptide 25 (human).
T5 peptide: Biotin-VKLEAEIATYRRLLEDGE
The assay is described as above.

For another assay, the target named is T6, Peptide 19 (human).
T6 peptide: Biotin-MEQLNGILLHLESELAQT
The assay is described as above.

The target of a further assay is T7, Peptide 23 (human).
T7 peptide: Biotin-QAQEYEALLNIKVKLEAE
The assay is described as above.

The target in the next assay is T8, Peptide 20 (human).
T8 peptide: Biotin-ILLHLESELAQTRAEGQR
Described as above.

The next assay concerns the target T9, Peptide 27 (human).
T9 peptide: Biotin-LLEDGEDFNLGDALD
The assay is described as above.

For the next assay, the target named is T10, Peptide 22 (human).
T10 peptide: Biotin-RAEGQRQAQEYEALLNIK
The description is as above.

The next assay concerns the target T11, Peptide 26 (human).
T11 peptide: Biotin-IATYRRLLEDGEDFNLGD
Described as above.

B1: K18-624 antibody (antibody, V domains shown)
VH: DVQLVESGGGLVQPGGSRKLSCAASGFTFSSFGMHWVRQAPEKGLEWVAYISSGSTTIYYADTVKGRFTISRDNPKNTLFLQMTSLRSEDTAMYYCARRGMITTGAWFAYWGQGTLVTVSA
VL: DILLTQSPAILSVSPGERVSFSCRASQRIGTSIHWYQQRTNGSPRLLIKYASESISGIPSRFSGSGSGTDFTLSINSVESEDIADYYCQQSYIWPFTFGSGTKLEIK
notes: Mouse monoclonal antibody from a hybridoma (Balb/C mouse immunised with Peptide 1-KLH)
On to B1, for which the binding result with Peptide 2 is listed as “no binding (tested: 5 to 10 ng/mL)”. Further, the values for the S/N ratio in [1], in assay [2] and in assay [3] were 47.3, 683 and 16.1, respectively.

B2: K18-328 antibody (antibody, V domains shown)
VH: QVHLQQSAAELARPGASVKMSCKASGYTFTNYTIHWIKQRPGQGLEWIGYINPSSGYTDYNQNFKDKTTLTADKSSTTVYMQLSSLTSEDSAVYYCARQIPFAYWGQGTLVTVSA
VL: not shown
notes: Mouse monoclonal antibody from a hybridoma (immunogen full length rCK18)
Turning to B2, the Abs450 in the assay with Peptide 21 is 0.01; with Peptide 24 it was 0.01; in the assay with Peptide 25, 0.01; with Peptide 19, 0.01; in the assay with Peptide 23, 0.02; with Peptide 20, 0. Also, the Abs450 worked out at 0 in the assay with Peptide 27, 0 with Peptide 22 and 0.01 in the assay with Peptide 26.
